Data reported in patent US20250270300A1 (UNIVERSITY COURT OF THE UNIVERSITY OF ABERDEEN, published 2025).

Assays:
human serum albumin = target: T1, human serum albumin (human, UniProt P02768 25-609); assay: ELISA
T1 construct: also called HSA

[1] = target: T2, Recombinant Hyr1 N-terminus fragment (Candida albicans, UniProt Q5AL03 63-350); assay: ELISA, plate coated with recombinant Hyr1 N-terminus, titrated mAb
T2 construct: the last 288 residues are Hyr1 63-350; Expressed in HEK293F cells, 32 kDa; also called recombinant N-terminus of the Hyr1 protein; purified Hyr1 protein
T2 sequence: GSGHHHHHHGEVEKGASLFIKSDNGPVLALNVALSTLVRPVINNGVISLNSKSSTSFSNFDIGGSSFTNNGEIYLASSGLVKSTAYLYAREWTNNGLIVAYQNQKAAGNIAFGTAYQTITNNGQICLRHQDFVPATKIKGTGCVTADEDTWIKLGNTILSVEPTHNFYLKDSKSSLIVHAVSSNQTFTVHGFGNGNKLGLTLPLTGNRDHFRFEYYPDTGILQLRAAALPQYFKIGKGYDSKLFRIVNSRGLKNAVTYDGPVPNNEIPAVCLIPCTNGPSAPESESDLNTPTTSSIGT

T1 sequence (P02768 25-609 limits assumed): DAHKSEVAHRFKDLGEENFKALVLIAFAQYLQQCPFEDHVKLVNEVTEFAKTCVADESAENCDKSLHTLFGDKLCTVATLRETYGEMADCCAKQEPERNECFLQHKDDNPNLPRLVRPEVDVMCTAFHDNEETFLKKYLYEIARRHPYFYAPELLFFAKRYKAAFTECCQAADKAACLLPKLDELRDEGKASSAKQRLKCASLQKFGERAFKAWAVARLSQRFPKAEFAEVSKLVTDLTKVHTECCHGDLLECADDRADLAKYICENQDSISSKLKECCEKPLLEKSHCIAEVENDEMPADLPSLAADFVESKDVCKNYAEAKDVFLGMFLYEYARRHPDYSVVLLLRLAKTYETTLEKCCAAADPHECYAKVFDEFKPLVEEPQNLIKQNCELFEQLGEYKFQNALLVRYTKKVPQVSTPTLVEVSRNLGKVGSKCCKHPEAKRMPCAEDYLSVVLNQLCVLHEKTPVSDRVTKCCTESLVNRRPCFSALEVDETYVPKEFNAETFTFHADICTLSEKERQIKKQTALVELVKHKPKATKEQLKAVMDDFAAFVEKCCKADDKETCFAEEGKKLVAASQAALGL

B1: AB126 (antibody, human IgG1, V domains shown)
VH: EVQLVESGGGLAQPGGSLRLSCEASGFHLAGNAMAWVRQAPGKGLEWVAAIGGSDDRTDYADSVKGRFTISRDKSKNTLSLQMNSLRVEDTAVYYCAKDIWRWAFDYWGQGTLVSVSS
VL: DIVMTQSPATLSLSPGERATLSCWASQYINTYVNWYQHKPGQAPRLLIYDASKRATGIPARFSGSGSGTDFTLTISSLEPEDFAVYYCQQGSNWPLTFGQGTRLEIK
notes: Tested as purified recombinant whole human IgG1 (Expi293F); also called 06-AB-126; anti-whole cell mAb
binding result (human serum albumin): no binding

B2: AB122 (antibody, human IgG1, V domains shown)
VH: EVQLVQSGGGLAQPGRSLRLSCAASGFGFDDFAMHWVRQPPGKGLEWVSGLTWNGGSIDYAGSVRGRFTISRDNAKNSLFLQMNSLRAEDTALYYCAKGLSGGTMAPFDIWGQGTMVSVSS
VL: QAGLTQPPSVSVAPGQTATIPCGGNNIGSKHVHWYQQKPGQAPVAVVYDDSDRPSGVPERFSGSNSGNTATLTISSVEAGDEADYYCQVWDRSSDHFWLFGGGTRLTVL
notes: Tested as purified recombinant whole human IgG1 (Expi293F); also called 06-AB-122; anti-Hyr1 mAb
binding result (human serum albumin): no binding | EC50 [1]: 0.0496 µg/mL

B3: AB129 (antibody, human IgG1, V domains shown)
VH: QVQLVESGGGLVQPGGSLRLSCSASQFILSNYWVHWVRQVPGEGLVWVSRINEDGSVTSYADSVKGRFTISRDNAKNTLYLQMNSLRVDDTAVYYCVRDLCGERDDWGQGTLVTVSS
VL: VIWMTQSPLSLPVTPGEAASISCRSSQSLLHRNGRTFFAWYLQKPGQSPQILIYLGSNRAFGVPDRFSGSGSGTDFTLKISRVEAEDVGIYYCMQGLQTPYTFGQGTKLEIK
notes: Tested as purified recombinant whole human IgG1 (Expi293F); also called 06-AB-129; anti-whole cell mAb
binding result (human serum albumin): no binding

B4: AB118 (antibody, human IgG1, V domains shown)
VH: EVQLVESGGGLVQPGGSLRLSCSASQFILSNYWVHWVRQVPGEGLVWVSRINEDGSVTSYADSVKGRFTISRDNAKNTLYLQMNSLRVDDTAVYYCVRDLCGERDDWGQGTLVSVSS
VL: DIVMTQSPLSLPVTPGEAASISCRSSQSLLHRNGKTFFAWYLQKPGQSPQILIYLGSNRASGVPDRFSGSGSGTDFTLKISRVEAEDVGIYYCMQGLQTPYTFGQGTKLEIK
notes: Tested as purified recombinant whole human IgG1 (Expi293F); also called 06-AB-118; anti-whole cell mAb
binding result (human serum albumin): no binding

B5: AB130 (antibody, human IgG1, V domains shown)
VH: QLQLQESGGGLVQPGGSLRLSCSASQFILSNYWVHWVRQVPGEGLVWVSRINEDGSVTSYADSVKGRFTISRDNAKNTLYLQMNSLRVDDTAVYYCVRDLCWERDDWGQGTLVSVSS
VL: VIWMTQSPLSLPVTPGEAASISCRSSQSLLHRNGRTFFAWYLQKPGQSPQILIYLGSNRAFGVPDRFSGSGSGTDFTLKISRVEAEDVGIYYCMQGLQTPYTFGQGTKLEIK
notes: Tested as purified recombinant whole human IgG1 (Expi293F); also called 06-AB-130; anti-whole cell mAb
binding result (human serum albumin): no binding

B6: AB119 (antibody, human IgG1, V domains shown)
VH: QVTLKESGGGLVQPGGSLRLSCVASGFTFRTYWMHWVRQDPGKGLVWVSRLDEVGRLTSYADSVNGRFTISRDNAKNILYLQMNSLRAEDTGVYYCARDLSGSADYWGQGTLVTVSS
VL: DVVLTQSPLFLPVTPGEPASISCRSSQSLLHSRGHTSLHWYLQKPGQSPHLLIYSVFNRASGVPDRFSGSGSGTDFTLKISRVEAEDVGVYYCMQALEPPYTFGQGTKLEIK
notes: Tested as purified recombinant whole human IgG1 (Expi293F); also called 06-AB-119; anti-whole cell mAb
binding result (human serum albumin): no binding

B7: AB134 (antibody, human IgG1, V domains shown)
VH: QLQLQESGGGLVQPGGSLRLSCVVSGFTFSSHAMSWVRQAPGKGLEWVSSISISGGDTFYADSVRGRFTIFRDNSKNTVYLQMNSLRAEDTAVYYCATETSPNDYWGQGTLVSVSS
VL: SYELTQPSSLTVSPGGTVTLTCGLSSGAVTSGHYPYWFQQKPGQAPKTLIFDTSRKHSWTPARFSGSLLGGKAALTLSGAQPEDDADYYCLLACNGACVFGGGTKLTVL
notes: Tested as purified recombinant whole human IgG1 (Expi293F); also called 06-AB-134; anti-whole cell mAb
binding result (human serum albumin): no binding

B8: AB135 (antibody, human IgG1, V domains shown)
VH: EVQLVETGGGLVQPGGSLRLSCVVSGFTFSSHAMSWVRQAPGKGLEWVSSISISGGDTFYADSVRGRFTIFRDNSKNTVYLQMNSLRAEDTAVYYCATETSPNDYWGQGTLVTVSS
VL: SYELTQPSSLTVSPGGTVTLTCGLSSGAVTSGHYPYWFQQKPGQAPKTLIFDTSRKHSWTPARFSGSLLGGKAALTLSGAQPEDDADYYCLLACNGACVFGGGTKLTVL
notes: Tested as purified recombinant whole human IgG1 (Expi293F); also called 06-AB-135; anti-whole cell mAb
binding result (human serum albumin): no binding

B9: AB131 (antibody, human IgG1, V domains shown)
VH: QVQLVQSGGGVVQPGGSLRLSCAASPFTFKTSILHWVRQAPGKGLEWVSAMSYDGFSKYYADSVKGRLTISRDSSTNTLYLEMNSLRFEDTALYFCAREAYTSGRAGCFNPWGQGVLVSVSS
VL: DIVMTQTPSTQSASVGDRVTITCRASQSISIWLAWYQQKPGKAPKLLIHDASTLESGVPSRFSGSGSGTEFTLTISSLQPDDSATYYCQRYNDYPPTFGPGTKVEIK
notes: Tested as purified recombinant whole human IgG1 (Expi293F); also called 06-AB-131; anti-whole cell mAb
binding result (human serum albumin): no binding

B10: AB132 (antibody, human IgG1, V domains shown)
VH: QVLKESGGGVVQPGGSLRLSCAASPFTFETSILHWVRQAPGKGLEWVSAMSYDGFSKYYADSVKGRLTISRDSSTNTLYLEMNSLRFEDTALYFCAREAYTSGRAGCFDPWGQGVLVSVSS
VL: EIVMTQSPSTQSASVGDRVTITCRASQSISIWLAWYQQKPGKAPKLLIHDASTLESGVPSRFSGSGSGTEFTLTISSLQPDDSATYYCQRYNDYPPTFGPGTKVEIK
notes: Tested as purified recombinant whole human IgG1 (Expi293F); also called 06-AB-132; anti-whole cell mAb
binding result (human serum albumin): no binding

B11: AB123 (antibody, human IgG1, V domains shown)
VH: EVQLLESGGGVVQPGRSLRLSCAASGFTFSNYGMHWVRQAPGKGLEWVAVVWFDGSYKYYTDSVKGRFTISRDNSKSTLYLQMNSLRAEDTAVYYCVSPIMTSAFDIWGPGTMVSVSS
VL: QLVLTQPPSASGSPGQSVTISCTGTSSDVGGSNFVSWYQHHPGKAPKLMIYEVSQRPSGVPDRFSGSKSGNTASLTVSGLQADDEADYYCSSYAGSVVLFGGGTKLTVL
notes: Tested as purified recombinant whole human IgG1 (Expi293F); also called 06-AB-123; anti-Hyr1 mAb
binding result (human serum albumin): no binding | EC50 [1]: 0.0533 µg/mL

B12: AB124 (antibody, human IgG1, V domains shown)
VH: EVQLVESGGGVVQPGRSLRLSCAASGFTFSNYGMHWVRQAPGKGLEWVAVVWLDGSYKYYTGSVKGRFTISRDNSKSTLYLQMNSLRAEDTAAYYCVSPIMTSAFDIWGPGTMVTVSS
VL: QLVLTQPPSASGSPGQSVTISCTGTSSDVGGSNFVSWYQHHPGKAPKLMIYEVSQRPSGVPDRFSGSKSGNTASLTVSGLQADDEADYYCSSYAGSVVLFGGGTKLTVL
notes: Tested as purified recombinant whole human IgG1 (Expi293F); also called 06-AB-124; anti-Hyr1 mAb
binding result (human serum albumin): no binding | EC50 [1]: 1.05 µg/mL

B13: AB121 (antibody, human IgG1, V domains shown)
VH: EVQLVESGGTLVQPGGSLRLSCAASGFTFSDYWMNWVRQAPGKGLEWVANIKQDGSEKYYVDSLRGRVTISRDNAQNSVFLQMHSLSVEDTAVYYCARDGYTFGPATTELDHWGRGTLVSVSS
VL: QLVLTQPPSVSVSPGQTASITCSGDELRNKYTSWYQQKSGQSPVLVIYQDNNRPSGIPERFSGSQSGDTATLTISGTQAVDEADYYCQAWVSQTLVFGGGTKLTVL
notes: Tested as purified recombinant whole human IgG1 (Expi293F); also called 06-AB-121; anti-Hyr1 mAb
binding result (human serum albumin): no binding | EC50 [1]: 0.0765 µg/mL

B14: AB133 (antibody, human IgG1, V domains shown)
VH: EVQLVESGGGLVQPGGSLRVSCAASGFTLNTYWMHWVRQAPGKGLVWVSRINEDGTTISYADSVRGRFTISRDNAENTLYLQMHSLRAEDTGVYYCARDFTGPFDSWGQGTLVSVSS
VL: QSVLTQPPSVSGTPGQRVTISCSGSNSNAGRDYVSWYQQVPGTAPKLLIYKNNQRPSGVPDRFSGSKSGTSASLAISGLRSEDDGDYYCIVWDGSLSGYVFGTGTKVTVL
notes: Tested as purified recombinant whole human IgG1 (Expi293F); also called 06-AB-133; anti-whole cell mAb
binding result (human serum albumin): no binding

B15: AB140 (antibody, human IgG1, V domains shown)
VH: EVQLVESGGGLVQPGGSLRVSCAASGFTLNTYWMHWVRQAPGKGLVWVSRINEDGTTISYADSVRGRFTISRDNAENTLYLQMHSLRAEDTGVYYCARDFTGPFDSWGQGTLVSVSS
VL: QLVLTQPPSVSGTPGQRVTISCSGSNSNVGRDYVSWYQQVPGTAPKLLIYKNNQRPSGVPDRFSGSKSGTSASLAISGLRSEDDGDYYCIVWDGSLSGYVFGTGTKVTVL
notes: Tested as purified recombinant whole human IgG1 (Expi293F); also called 06-AB-140; anti-whole cell mAb
binding result (human serum albumin): no binding

B16: AB139 (antibody, human IgG1, V domains shown)
VH: EVQLVESGGGLVQPGGSLRVSCAASGFTLNTYWMHWVRQAPGKGLVWVSRINEDGTTISYADSVRGRFTISRDNAENTLYLQMHSLRAEDTGVYYCARDFTGPFDSWGQGTLVSVSS
VL: QSVLTQPPSVSGTPGQRVTISCSGSNSNVGRDYVSWYQQVPGTAPKLLIYKNNRRPSGVPDRFSGSKSGTSASLAISGLRSEDDGDYYCIVWDGSLSGYVFGTGTKVTVL
notes: Tested as purified recombinant whole human IgG1 (Expi293F); also called 06-AB-139; anti-whole cell mAb
binding result (human serum albumin): no binding

B17: AB127 (antibody, human IgG1, V domains shown)
VH: EVQLVESGGGLVNPGGSLRLSCAASGFTFSNYAMNWVRQAPGKGLEWVSSISRSGDYIYYADSLKGRSTISRDNAKNSLFLQMNSLRAEDSAVYYCARDWGRLGYCSSNNCPDAFDVWGQGTRVSVSS
VL: EIVMTQSPSFVSASVGDRVTITCRASQDISNWLVWYQQKPGKAPKLLIYASSNLQSGVPSRFSGSGSGTDFALTIISLQPEDFATYYCQQENSFPYTFGQGTKLEIK
notes: Tested as purified recombinant whole human IgG1 (Expi293F); also called 06-AB-127; anti-whole cell mAb
binding result (human serum albumin): no binding

B18: AB120 (antibody, human IgG1, V domains shown)
VH: EVQLVQSGGGLVQPGGSLGLSCAASGFIFTSYAMTWVRQAPGKGLEWVSVITGNVGTSYYADSVKGRFTISRDNSKKTVSLQMNSLRAEDTAIYYCVKTRYDFSSGYYFDDWGQGTLVSVSS
VL: DIVMTQSPSSVSASVGDKVTITCRASQGISRWLAWYQQKPGEAPELLIYAASSLQSGVPSRFSGSGSGTDFTLTISSLQPEDFATYYCQQANSFPITFGQGTRLQIK
notes: Tested as purified recombinant whole human IgG1 (Expi293F); also called 06-AB-120; anti-Hyr1 mAb
binding result (human serum albumin): no binding | EC50 [1]: 0.104 µg/mL
